Test results as given in article doi:10.1101/2022.07.09.499445 (bioRxiv, 2022).

Assays:
[1] = target: QacA WT (tagged with GFP) (Staphylococcus aureus, UniProt P0A0J9); assay: immunostaining of cells or tissue
[2] = target: ICab A4, displayed on the yeast cell surface (camel); assay: flow cytometry on cells
[3] = target: ICab B7, displayed on the yeast cell surface (camel); assay: flow cytometry on cells
[4] = target: five unique clones; assay: flow cytometry on cells

| Binder | binding result [1] | Kd [2] [nM] | Kd [3] [nM] | population shift [4] [%] |
| --- | --- | --- | --- | --- |
| ICab B7, purified (VHH) VHH: QVQLQESGGGSVQAGGSLRLSCAASGYTNSRKCMGWFRQIPGKEREGVAAIYGFGRGLILYADSVKGRFTISQDNAKNTVYLQMNSLKPEDTAMYYCAADSPGSCLSRSGYNYWGQGTQVTVSS | binds | – | – | – |
| ICab A4, purified (VHH) VHH: QVQLQESGGGSVQTGGSLRLSCAASGYRYSDNCVGWFRQAPGREREAVATYNSGSSTWYADSVKGRFTISQDSAKSTVYLQMNNLKPEDTAMYYCAGRNRLGSYCYMTGDFAYWGQGTQVTVSS | binds | – | – | – |
| QacA_(D411N)GFP (natural protein) MISFFTKTTDMMTSKKRWTALVVLAVSLFVVTMDMTILIMALPELVRELEPSGTQQLWIVDIYSLVLAGFIIPLSAFADKWGRKKALLTGFALFGLVSLAIFFAESAEFVIAIRFLLGIAGALIMPTTLSMIRVIFENPKERATALAVWSIASSIGAVFGPIIGGALLEQFSWHSAFLINVPFAIIAVVAGLFLLPESKLSKEKSHSWDIPSTILSIAGMIGLVWSIKEFSKEGLADIIPWVVIVLAITMIVIFVKRNLSSSDPMLDVRLFKKRSFSAGTIAAFMTMFAMASVLLLASQWLQVVEELSPFKAGLYLLPMAIGDMVFAPIAPGLAARFGPKIVLPSGIGIAAIGMFIMYFFGHPLSYSTMALALILVGAGMASLAVASALIMLETPTSKAGNAAAVEESMYNLGNVFGVAVLGSLSSMLYRVFLDISSFSSKGIVGDLAHVAEESVVGAVEVAKATGIKQLANEAVTSFNDAFVATALVGGIIMIIISIVVYLLIPKSLDITKQK | – | 65 | 100 | 65 to 97 |
